Biological target: HA-tagged HNRNPK (heterogeneous nuclear ribonucleoprotein K), wild type (human) (UniProt P61978)
Assay: co-IP; anti-HA agarose beads on lysates of Huh7.5 cells stably expressing HA-tagged HNRNPK or its deletion mutants, 48 h after electroporation with a subgenomic JFH1 replicon or genomic HCV RNA; lysis buffer 20 mM Tris-HCl pH 7.5, 0.5% Nonidet P-40, 1 mM sodium deoxycholate, 100 mM NaCl; 3 h at 4°C; elution with HA peptide; immunoblot; cells with non-tagged HNRNPK as control

Q: How did the percent of the intracellular HCV protein coprecipitated turn out when HCV core protein (natural protein) was run?
A: 1%

Reference: PMC4287573
